Our source for the switch fluorescence ratio values is the supplement of paper PMC10126150.

± gives the standard deviation of the averaged measurements.

For the data set, the system named is ATP. The experiment in a line: switch fluorescence ratio, 500 uM ATP over buffer (Cy3 cluster intensity, sum of 5 cycles each) (fold (ratio)); higher = stronger signal-on switching upon ATP binding; sequences stand for … in TCGTCGGCAGCGTCAGATGTGTATAAGAGACAGTTTTTTTTTTTTTTTTTTTTTTTTT…TC. To be noted: aptamer strand: ATP DNA aptamer (quencher-CACCTGGGGGAGTATTGCGGAGGAAGG + anchor), 100 nM annealed; ATP concentration: 500 uM. The procedure, abridged:
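The fluorescence ratio divides summed target-cycle Cy3 intensity by summed buffer-cycle Cy3 intensity for each cluster and is averaged per switch-domain sequence. Cy3-labelled switching-strand clusters on a modified Illumina MiSeq flow-cell were annealed to 100 nM quencher-labelled ATP aptamer, then imaged in selection buffer and again after 15 min with 500 uM ATP at 22 °C. Five such cycles were run, with NaOH stripping and re-annealing between them, and clusters outside 100-1000 RFU were excluded.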
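Further: ATP exposure 15 min at 22 °C before imaging.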

Take TATGTAGGTA: the switch fluorescence ratio was found to be 0.994 ± 0.047.

Turning to AAGGTCAAGG, the switch fluorescence ratio came to 1.015 ± 0.0056.

Take CAGGGAATGT: the switch fluorescence ratio is 0.9984 ± 0.0077.

For the sequence AGATTACCTG, the switch fluorescence ratio was 1.02 ± 0.027.

As for TAGGGAACGT, the switch fluorescence ratio came out at 1.04 ± 0.04.

On to AGAGCTAAGT, for which the switch fluorescence ratio amounted to 0.982 ± 0.027.

On to TGTTGCAAGT, for which the switch fluorescence ratio worked out at 0.976 ± 0.017.

For GAACAATGGG, the switch fluorescence ratio was 0.977 ± 0.03.

As for TTTGTTGTAG, the switch fluorescence ratio was 0.985 ± 0.028.

Regarding CGAATATTAA, the switch fluorescence ratio amounted to 0.994 ± 0.013.

As to ACGGGTAGGG, the switch fluorescence ratio was 1.05 ± 0.035.

Take CAAAGCACCG: the switch fluorescence ratio came to 1.031 ± 0.0063.

In the case of TCTAGGGCGC, the switch fluorescence ratio was 1.01 ± 0.053.

In the case of TTAAGCTGTT, the switch fluorescence ratio amounted to 1.01 ± 0.023.

With CAGTTTTTGG, the switch fluorescence ratio stood at 0.992 ± 0.013.

Regarding ATTTTCCAGT, the switch fluorescence ratio worked out at 1.01 ± 0.011.

In the case of GGACGCTATC, the switch fluorescence ratio was 3.89 ± 0.42.

With CATGGGGCGC, the switch fluorescence ratio worked out at 1.012 ± 0.0071.

Turning to CCGCATGGGG, the switch fluorescence ratio was determined as 1.49 ± 0.057.

As for GGGTGGATAG, the switch fluorescence ratio was 0.971 ± 0.018.

Consider GAGAAAGGTG, for which the switch fluorescence ratio turned out to be 1.09 ± 0.022.

With TCGCGGAGTT, the switch fluorescence ratio came to 1 ± 0.011.

As to TGGGGATGGT, the switch fluorescence ratio came out at 0.991 ± 0.062.

Regarding TTTGGGAAAA, the switch fluorescence ratio was determined as 1.05 ± 0.038.

As for TGGGGGCTAT, the switch fluorescence ratio came to 0.989 ± 0.053.

Regarding CCCGGGAGTG, the switch fluorescence ratio worked out at 1.02 ± 0.028.

Consider GTTTAGAGTC, for which the switch fluorescence ratio was determined as 1 ± 0.037.

For TAGGTTGATG, the switch fluorescence ratio amounted to 0.981 ± 0.035.

For AGAGTAGGGA, the switch fluorescence ratio is 0.989 ± 0.02.

For GCTATTTGTA, the switch fluorescence ratio was 1.01 ± 0.023.

For the sequence TCTCCAGGGG, the switch fluorescence ratio was 2.3 ± 2.1.

As to GGAAAAGTTC, the switch fluorescence ratio stood at 1 ± 0.058.

On to GATTATCATT, for which the switch fluorescence ratio came to 0.9669 ± 0.0093.

In the case of GAGTGGAGTG, the switch fluorescence ratio stood at 1.02 ± 0.079.

Regarding GATTGCCTGT, the switch fluorescence ratio is 0.981 ± 0.029.

With CCGGGGGCTG, the switch fluorescence ratio is 1.04 ± 0.068.

With CTTATGGGGG, the switch fluorescence ratio amounted to 1.03 ± 0.046.

Turning to TAATCGATAT, the switch fluorescence ratio came to 0.9803 ± 0.0026.

In the case of CCGTGTGTCA, the switch fluorescence ratio stood at 1.03 ± 0.029.

As to ATGAGTAGGA, the switch fluorescence ratio stood at 1.017 ± 0.0061.

Consider TTTATGCCAG, for which the switch fluorescence ratio worked out at 0.946 ± 0.053.

As for ACTTTCATGG, the switch fluorescence ratio was found to be 1.01 ± 0.018.

ACTGAGTAA: the switch fluorescence ratio worked out at 1.01 ± 0.076.

In the case of ATACAAATTT, the switch fluorescence ratio was 0.995 ± 0.047.

Turning to ATTGGACTG, the switch fluorescence ratio worked out at 1.01 ± 0.035.

TATTTTAGC: the switch fluorescence ratio stood at 0.971 ± 0.034.

For TTGCTTACAT, the switch fluorescence ratio came out at 1.02 ± 0.021.

As to GTTTTCGTTT, the switch fluorescence ratio was determined as 0.9711 ± 0.0058.

As for GGCCTCATGC, the switch fluorescence ratio is 1.02 ± 0.017.

Consider CGTTGGACGG, for which the switch fluorescence ratio turned out to be 1.03 ± 0.026.

Regarding CTTCGGGGGA, the switch fluorescence ratio stood at 0.992 ± 0.01.

In the case of TTTTGTCAAT, the switch fluorescence ratio was 1.1 ± 0.13.

On to TGTTGTTAAT, for which the switch fluorescence ratio came out at 0.999 ± 0.019.

Consider TTTTAAATTT, for which the switch fluorescence ratio is 1.01 ± 0.11.

Regarding AGAATTGTAC, the switch fluorescence ratio stood at 1.05 ± 0.014.

In the case of ACCATAGAAT, the switch fluorescence ratio is 1.009 ± 0.0094.

Regarding TGAATGGTCT, the switch fluorescence ratio was 1.01 ± 0.03.

AGTGCGGGTG: the switch fluorescence ratio was 1.13 ± 0.028.

In the case of TTTAAGCGAT, the switch fluorescence ratio was 1.03 ± 0.015.

For TATCGGGGCA, the switch fluorescence ratio amounted to 0.9622 ± 0.007.

For TTCTGGAAAT, the switch fluorescence ratio was determined as 0.994 ± 0.016.

Turning to TGAGCTATTG, the switch fluorescence ratio is 0.997 ± 0.015.

Regarding TTTGCCAAAC, the switch fluorescence ratio amounted to 1.52 ± 0.55.

For TTAGTCGGGA, the switch fluorescence ratio stood at 1.023 ± 0.0028.

Consider CATTAGGCAA, for which the switch fluorescence ratio is 1.696 ± 0.0032.

Consider AAGAGTTCTT, for which the switch fluorescence ratio turned out to be 1.01 ± 0.03.

Consider AAGGTCCAGT, for which the switch fluorescence ratio amounted to 1.13 ± 0.23.

For AGCTTCTTAA, the switch fluorescence ratio turned out to be 0.992 ± 0.068.

For the sequence AGCTTATGTT, the switch fluorescence ratio came out at 0.985 ± 0.017.

As for GGATTAGTTT, the switch fluorescence ratio is 0.994 ± 0.029.

Turning to ATGGGACGGG, the switch fluorescence ratio amounted to 1 ± 0.019.

In the case of AAGCCCCTTG, the switch fluorescence ratio is 0.992 ± 0.034.

As to CACGGGATGC, the switch fluorescence ratio turned out to be 1.58 ± 0.12.

AACCTGGGGT: the switch fluorescence ratio worked out at 1.02 ± 0.0073.

On to AGCTTTGGGG, for which the switch fluorescence ratio was 1.02 ± 0.018.

On to ATCTTTTTGT, for which the switch fluorescence ratio was found to be 1.014 ± 0.005.

As for TTTGGTAGGG, the switch fluorescence ratio came out at 1.02 ± 0.021.

For the sequence AGGGGACTTG, the switch fluorescence ratio is 1.01 ± 0.06.
